# From the supplement of paper PMC10567573
# ± gives the standard deviation.
# Assay: protein stability index of a GFP-peptide fusion (GPS, HEK-293T) (PSI 1-6); higher = more stable
# Conditions: c terminus: a fixed tail appended
# 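Note: 24-mer peptide tiles fused after GFP, lentivirally expressed, FACS-sorted into six equal bins by GFP/DsRed ratio, decoded by Illumina sequencing, PSI is the read-weighted mean bin number.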
Sequence,protein stability index (treatment: DMSO),"protein stability index (treatment: MLN4924 1 uM, 8 h)"
TSIEEGYERSFIHKIKHKHILAKN [IQUB],3.14 ± 0.16,3.29 ± 0.55
LEALLEAAGIGKLSTADGKAFADP [ANKRD17],3.42 ± 0.38,3.31 ± 0.15
YDPNYMSPFAQFACDNGLNVRGGK [PPTC7],3.63 ± 1,4.11 ± 0.43
DISPPIFRRGEKLRVISDEGGWWK [SLA],3.02 ± 0.71,2.87 ± 0.42
LYHRADVEKVLRRWVDEEWPKRER [EDARADD],2.87 ± 0.31,2.94 ± 0.45
IFEDRIRGIDIIKWMERYLRDKTV [TRAF3IP2],2.02 ± 0.56,1.99 ± 0.23
AQAIDFINRCSVLRQLGCKDGKNW [SPOPL],2.29 ± 0.24,2.58 ± 0.42
GLPGPEAARSGDAAANKLFHYIPG [PLEKHN1],3.93 ± 0.38,4.15 ± 0.42
RIDGKLDSPSRSPSKVEVTEKTTT [C2CD2L],5.42 ± 0.21,5.46 ± 0.11
LLKALVSELSEHLRDPLTSLSHTE [FCHSD1],2.44 ± 0.42,2.2 ± 0.17
SDCCRKLLSSGFEIDTPDKFGRTC [ANKRD44],2.8 ± 0.27,2.97 ± 0.33
GHHAEKLPAGAGAPKAGLEEAPAV [TNFSF13B],5.22 ± 0.3,5.27 ± 0.2
QAPKSKSGSRPRKPPPRKHTRSWA [LRRC59],4.05 ± 0.21,4.15 ± 0.29
RTVAIWDVAEGYRKLSLKGHNDWV [WDR88],2.46 ± 0.38,2.54 ± 0.44
IVLNKINQILMEKYLKLQDTCRTQ [INTS3],3.59 ± 0.83,3.24 ± 0.61
GETGSGDQAGGEGKHITVFKTYIS [MYOZ1],3.97 ± 0.14,4.06 ± 0.15
YEAGQVTLHNAQTQEPIFTFTASF [TRIM15],2.38 ± 0.17,2.11 ± 0.15
LEWHDSLFQILSERQDMYQCLVEG [ZNF511],2.42 ± 0.24,2.43 ± 0.29
RRTAENKLDTKYPYVCHAELNAIM [DCTD],2.29 ± 0.15,2.37 ± 0.49
RNTPIEALCENFPEEMATYLRYVR [CSNK1G1],2.84 ± 0.26,2.9 ± 0.56
LGVYSALREIAFTRQLHEKTSQLS [ATE1],2.59 ± 0.71,2.4 ± 0.69
LFTSFQEPPCEGNTFFCHSNMCIN [NETO1],2.14 ± 0.42,2.13 ± 0.41

Sequence,protein stability index (treatment: DMSO),"protein stability index (treatment: MLN4924 1 uM, 8 h)"
NSGLKPKDNEFTSKPWHWPINYQG [POMT2],2.99 ± 0.18,3.24 ± 0.27
MATESVDHELGRCTDSVVKYELMR [EHMT1],3.65 ± 0.29,3.69 ± 0.19
NHLPDPEIFRQRFRQFGYQDSPGP [ZNF24],3.54 ± 0.29,3.48 ± 0.3
HMLNQVESKVKDILSKVQKNHVGK [FAM98B],2.55 ± 0.51,2.36 ± 0.32
CIVSPDRPGVQDAALIEAIQDRLS [VDR],3.55 ± 0.14,3.65 ± 0.25
RQDPRPHGPQLPTGIEGNWGRLLE [ZBED2],3.68 ± 0.2,3.54 ± 0.32
NWRYATGGWETVFRPVSETCTDRS [FUT8],2.21 ± 0.42,3 ± 0.67
IYSTDLHKLDLNTREWTQLKPNNL [KLHDC10],2.65 ± 0.18,2.81 ± 0.15
KRKKLSTWKQELLKLMDRHKKDCA [ZNF75A],2.7 ± 0.15,2.83 ± 0.21
RMYCSDLLNPNLKDTVICAMKITQ [SPACA3],2.15 ± 0.42,2.05 ± 0.17
EAAEGKSLGSALKPGEGRSALFAG [TRIM29],4.87 ± 0.17,4.76 ± 0.19
EMFTKPVVILPCQHNLCRKCASDI [TRIM55],2.96 ± 0.3,2.83 ± 0.47
VNEFGMSGEDPTAAAPVAEVPTAA [CLPTM1],5.49 ± 0.26,5.39 ± 0.19
FKLLAGRWPFDHNDFGVFLCKLFP [EDNRA],2.34 ± 0.37,2.5 ± 0.38
FQEQVEKLKALHVDSAEYSCLKAI [NR2F2],3.61 ± 0.2,3.74 ± 0.23
TQKLSKIETLRLAKNYIWALSEIL [NEUROD6],2.61 ± 0.49,2.67 ± 0.47
MLCAASGNPDPEITWFKDFLPVDT [PTPRD],2.95 ± 0.66,3.23 ± 0.42
RPEELLQMELLLVNKLKWNLAAMT [CCND1],2.68 ± 0.71,2.52 ± 0.66
RCGVGVSVLDDLLYAVGGHDGSSY [KLHL20],2.36 ± 0.38,2.13 ± 0.42
ACRFQEDQEMARDLVERALYSMEC [TCF25],2.34 ± 0.57,2.49 ± 0.53
EIANEDRKHALERFEQEAVAVDSN [CCDC89],5.01 ± 0.42,5.31 ± 0.16
YYTFHFLYFKDKIFNVAIPRFHMA [FBXO3],3.06 ± 0.48,2.81 ± 0.2
